Experiments:
[1] = target: Chimeric protein #3 (mPro-mCat-hC-term-mmh) (mouse; human); assay: ELISA, coated mAb, 1.2 nM antigen (++ OD>1.0; + OD 0.4-1.0)
[2] = target: hPCSK9(D374Y)-mmh (human) (UniProt Q8NBP7); assay: as above
[3] = target: Human PCSK9-myc-myc-his (human) (UniProt Q8NBP7); assay: as above
[4] = target: Human PCSK9-myc-myc-his (human) (UniProt Q8NBP7); assay: SPR, mAb captured on anti-mouse IgG, 37C
[5] = target: Human PCSK9-myc-myc-his (human) (UniProt Q8NBP7); assay: SPR, mAb captured on anti-mouse IgG, 25C
mouse PCSK9-mmh (mouse) = mouse PCSK9-mmh (mouse) (UniProt Q80W65); assay: ELISA, coated mAb, 1.2 nM antigen
[6] = target: Chimeric protein #2 (hPro-mCat-mC-term-mmh) (human; mouse) (UniProt Q80W65); assay: ELISA, coated mAb, 1.2 nM antigen
[7] = target: Chimeric protein #1 (mPro-hCat-mC-term-mmh) (mouse; human) (UniProt Q80W65); assay: ELISA, coated mAb, 1.2 nM antigen

Row | Binder | OD [1] [od] | OD [2] [od] | OD [3] [od] | Kd [4] [nM] | T1/2 [4] [min] | Kd [5] [nM] | T1/2 [5] [min] | OD (mouse PCSK9-mmh (mouse)) [od] | OD [6] [od] | OD [7] [od]
1 | H1M495 (antibody, from a related filing, V domains shown) VH: EVQLVESGGGLVQPGRSLRLSCAASGFTFDDYAMHWVRQAPGKGLEWVSGINWNSGSIGYADSVKGRFTISRDNAKHSLYLQMNSLRPEDTALYYCVKEVTTGYYYGMDVWGQGTTVTVSS VL: DIQLTQSPSFLSASVGDRVTITCWASQGISSYLAWYQKKPGKAPNLLIYDASTLQSGVPSRFSGSGSGTEFTLTLSSLQPEDFATYYCQQLNIYPFTFGPGTKVDIK | > 1 | > 1 | > 1 | 7.5 | 19 | 0.44 | 222 | < 0.4 | < 0.4 | < 0.4
2 | H1M498 (antibody, from a related filing, V domains shown) VH: EVQLVESGGGLVKPGGSLRLSCAASGFTFSSYSMDWVRQAPGKGLEWVSSISSSSSYIYYADSVKGRFTISRDTAKNSLYLQMNSLRDEDTAVYYCAREGSSRLFDYWGQGTLVTVSS VL: DIQMTQSPSTLSASVGDRVTITCRASQSISSWLAWYQQRPGKAPKLLIYKASSLEGGVPSRFSGSGSGTEFTLTISSLQPEDFATYYCQQYNSYWYTFGQGTKLEIK | 0.4 to 1 | > 1 | > 1 | 7.5 | 14 | 6.4 | 30 | < 0.4 | < 0.4 | < 0.4

From patent US20140099312A1
